# Article PMC10739146
# How the values were obtained:
# [1] = anti-HA immunoblot of total lysate; conditions: glycan lost; control: wild type Rim21
# [2] = GFP fluorescence microscopy with mRFP-Snc1(pm) marker; conditions: glycan lost; control: wild type Rim21-2GFP
# [3] = stepwise centrifugation P13/P100/S100, immunoblot; conditions: glycan lost; control: wild type Rim21-HA
# [4] = cycloheximide chase, immunoblot, ± alkali; conditions: glycan lost; control: wild type Rim21
protein,measurement,setting,value
Rim21: N15Q (protein) parent chain: MNLWRHSPEELAAYNSCHPMKLGSGVLIQLPLYDNSAVYAEDITFRSFCCERVPVYVSTVLRNSSPYRYLDEVINDWQKFIQVSDYVGGSAEYAIYAVILSITSNFVITVFLTVICCINISGRAYKRILQLLRIASLLASLNLTIFITKVLRRLEKEHNVYGVVRAHSIMHIFSDDMTFVVLDFLATLMFQFCQVGIVIRLFQRAQEKRIIFFIGVILTITANILWVIPPFANHTTKHRNDWQILRPFVYLFRIAIATSYASIVIYHIWQKKKLWFKFNQMGLLTLLTILVVLLLPGFFLADVSNLWISELGEVFNTTCYVTSTVITWEWLDRLNVLERKEEAQSILGRPIFEEEQQDYRFAKYALRVQNALTRRESQDASTDRHDTSSNSEVCDLQTISRYDPEDQISVGRSIDRMHFNDRGTYKDVALKKLGYARDKILYFTDQIVQKSVGHNNSSSSKNEKTKQRKAMVRKRLGLDKPGIYIYSTKDVVFNSDEDDDENAEDEDDDEYEVGSEGNNNSSATFTSDHIGHI,expression_or_secretion,[1],increases
same,localisation_or_trafficking,[2],no change
same,localisation_or_trafficking,[3],changes
same,degradation_or_half_life,[4],increases
